Here are results for twelve molecules from patent publication US20250034594A1, “RNA-GUIDED GENOME RECOMBINEERING AT KILOBASE SCALE” (THE BOARD OF TRUSTEES OF THE LELAND STANFORD JUNIOR …, priority 2021, published 2025).

Assay type in all cases: cell-based
In experiment [1] the test system is gene editing with Cas9. As to the kind of experiment: Screen of 322 new SSAP proteins, gene editing activity with Cas9 (Table 5). On the set-up: Cas9 with SSAP activity: scale not given here. In outline: (§1)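 Read-out is gene editing activity. Candidates come from sequence data mining, are made synthetically, and are tested alongside either nuclease-active Cas9 or catalytically dead dCas9.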

Experiment [2] relates to gene editing with dCas9. Briefly: Screen of 322 new SSAP proteins, gene editing activity with dCas9 (Table 5). On the set-up: dCas9 with SSAP activity: scale not given here. The method, boiled down: as §1
For experiment [3], the system named is gene editing with Cas9 and dCas9. Briefly: Screen of 322 new SSAP proteins, activity across all experiments (Cas9 and dCas9, Table 5). On the set-up: scale not given here. In outline:
as §1

B1: SSAP_77: SEQ ID NO: 246 (protein)
chain: TNNQLVEAKGDFLTNPQLLNSGIIRKYLDPQGKASDEELAYFIAQAKAQNLNPFTKEIYFIKYGTQPAQIVTAKSAFEKKADSHPQFDGKEAGVIYLLDGEIKYSKGAFIPKGAEILGGWAKVYRKDRTYPTETEVSFEEYDNSKIRARVKELTQQGKDVTYPVMNSYGKPIGENNWDTMPCVMIRKVALVSAYREAFPAELGASYEADEIQLDNTPKDITPQENREDVIARKMAQIEQFNKEQAHTDPEPTQTEEPIQGELLDGELEY
With B1, in experiment [1], the “Cas9 with SSAP activity” value is reported as −10.167. Besides, the “dCas9 with SSAP activity” value in experiment [2] is listed as −10.167. Further, in experiment [3], the “Activity across all experiments” value is given as −10.167.

B2: SSAP_279: SEQ ID NO: 448; Dorea sp. 42_8 (protein, listed as Dorea sp.)
chain: AVNNSLAKRDQSMKLSVYLQNDAVKKQINQVVGGKNGTRFISSIVSAVQSTPALQECTSPSIVNAALLGEALNLSPSPQLGQFYMVPFDNRKKGCKEAQFQLGYKGYIQLAERSGYYKKLNVLAIKEGELIRYDPLDEEIEVELIDDDVIREETPAMGYYAMFEYENGFCIQQKWRSEDFGTFRAGQNSGKGSLEVFFFLVQRF
For the molecule B2, in experiment [1], the “Cas9 with SSAP activity” value is recorded as −2.825 and the “Cas9 with SSAP activity (normalized)” value is recorded as −3.398. Also, in experiment [2], the “dCas9 with SSAP activity” value is reported as −10.362 and the “dCas9 with SSAP activity (normalized)” value is reported as −2.349. In addition, in experiment [3], the “Activity across all experiments” value is recorded as −6.593.

B3: SSAP_91: SEQ ID NO: 260; Proteus mirabilis (protein, listed as Proteus mirabilis)
chain: SNPPLAQADLQKTQGTEVKTKTKDQQLIHFINQPSMKTQLAAALPRHMTPDRMIRIVTTEIRKTPALANCDMQSFIGAVVQCSQLGLEPGNALGHAYLLPFGNGKAKSGQSNVQLIIGYRGMIDLARRSNQIISISARTVRQGDSFHFEYGLNENLTHVPGENEDSPITHVYAVARLKDGGVQFEVMTHNQIEKVRASSKAGQNGPWVSHWEEMAKKTVIRRLFKYLPVSIEMQKAVILDEKAEANVDQENASVFEGEFEEVGSNGN
For the molecule B3, in experiment [1], the “Cas9 with SSAP activity” value turned out to be 0.635 and the “Cas9 with SSAP activity (normalized)” value stood at 0.826. In experiment [2], the “dCas9 with SSAP activity” value is reported as −0.407 and the “dCas9 with SSAP activity (normalized)” value is −0.170. For the same molecule, the “Activity across all experiments” value in experiment [3] turned out to be 0.114.

B4: SSAP_114: SEQ ID NO: 283; Methylomonas rhizoryzae (protein, listed as Methylomonas rhizoryzae)
chain: SELLSALNAPETQKPQTLPAMLKQHQPRFKAIAPRDVDVTRFSAALMADVRSNQKLAECNPMTVLGAFIRSTQLGLEPGSQLGQAYFVPFKGECQLVIGYRGMIELAYRSGKVASISARTVYENDVFEWELGTDERITHKPATGDRGALVAVYAMAKLTTGGIHFEVLDLAEIEKAKRASKSSSFGPWKDHFEEMAKKTAIRRLFKYLPVGTDLTRAVALDEKAESGSQQNDIEAETVLDGEFYPAGGGNDG
Consider B4, for which, in experiment [1], the “Cas9 with SSAP activity” value is −7.755 and the “Cas9 with SSAP activity (normalized)” value is −1.412. Moreover, the “dCas9 with SSAP activity” value in experiment [2] is −10.925. Also, in experiment [3], the “Activity across all experiments” value is recorded as −9.340.

B5: SSAP_83: SEQ ID NO: 252 (protein)
chain: TLQAVCPTQDKAVESQLDQTKFELIKRTICKGTTDDEFQLFIHACKRTGLDPFMRQIFAVKRWDSAERREVMTIQTGIDGYRLIADRTGRYAPGRDAEFGYDAHGGLRWAKAYVKKMTPDGHWHEISATAFWTEYVQTTKDGRPTVFWMKKGHVMLSKCAEALALRKTFPAELSGIYTQEEMAQTMSLPDTKGDSQTIGSDKAYEIERSIDNDPEFKTQLLTRLQRAFGCKSFSDLPQDQFKNVKKVIENHQIKEKIA
Take B5: in experiment [1], the “Cas9 with SSAP activity” value was −0.905 and the “Cas9 with SSAP activity (normalized)” value is −1.189. For the same molecule, in experiment [2], the “dCas9 with SSAP activity” value is given as −9.459 and the “dCas9 with SSAP activity (normalized)” value is reported as −1.391. In addition, the “Activity across all experiments” value in experiment [3] was −5.182.

B6: SSAP_269: SEQ ID NO: 438; Candidatus Parcubacteria bacterium (protein)
chain: TEYKRPQQPEQTKMLSAKLNQAGAPNKVSSFDVQLRDWFKKHSRKMQTLAGSKEEANKIITSLIFVAQRNPKLMTCTMESIGECLMQSAQLKLYPGPLQECAYVPFGNRATFMPQYQGLCKLAYNSGVVRSIATEVVYANDLFEFELGTNAYLRHVPTLSDNRGERIAAWCVVKTTHGEVIIVKPISFIEGIRKRSPAGNKKDSPWNTSDDDYDAMARKTVLKQALKTIPKSSDLAAAIQVDNAVESGSVDNVVTHIEPVTDPTPEETKE
modifications: Candidatus Parcubacteria bacterium
For the molecule B6, in experiment [1], the “Cas9 with SSAP activity” value is listed as −7.746 and the “Cas9 with SSAP activity (normalized)” value was −2.190. Moreover, in experiment [2], the “dCas9 with SSAP activity” value was −9.789. In addition, the “Activity across all experiments” value in experiment [3] is −8.768.

B7: SSAP_66: SEQ ID NO: 235 (protein)
chain: TNQLAHKDFFNTPAVKQKFQEVLNGNERQFTASLLSIVNNNKLLARASNTSIMTAAMKAAVLNLPIEPSLGFAYIVPYGQDAQFQLGYKGLIQLAIRSGQFKAINSGKVYKAQFKSYDPLFETLDIDFTQPEDEVYGYFATFELVNGFKKLTFWTKEQAESHGKRFSKTYAKGPWSTDFDAMAQKTVLKSILSKYAPLSTEMQEGLISDNQTEEVETDPIDVTPKNEDTQTLLSDLMSDEAESETEKV
Regarding B7, in experiment [1], the “Cas9 with SSAP activity” value worked out at 0.370 and the “Cas9 with SSAP activity (normalized)” value is 0.407. Also, in experiment [2], the “dCas9 with SSAP activity” value is given as −0.205 and the “dCas9 with SSAP activity (normalized)” value is −0.040. In addition, the “Activity across all experiments” value in experiment [3] is recorded as 0.082.

B8: SSAP_177: SEQ ID NO: 346; Geomicrobium sp. JCM 19055 (protein, listed as Geomicrobium sp.)
chain: GYKGMIDLARRSGHIKSIYAHTVHANDEFEYELGLEPKLVHKPATGDRGNMEYAYAVAHFVDGGYQFEVFSHHDIEQVKKRSKAGNFGPWKTDYEEMAKKTVVRRMFKYLPISIEIQQHASQDETVRRDITEEAEKVDNIIDLPNYEDPNNIDVPDEEQDEQKDEKQKQQGSAEEIALDFK
Take B8: in experiment [1], the “Cas9 with SSAP activity” value was −0.293 and the “Cas9 with SSAP activity (normalized)” value was −0.508. Also, in experiment [2], the “dCas9 with SSAP activity” value is given as −0.179 and the “dCas9 with SSAP activity (normalized)” value is listed as −0.069. The “Activity across all experiments” value in experiment [3] is listed as −0.236.

B9: SSAP_241: SEQ ID NO: 410; Antribacter gilvus (protein, listed as Antribacter gilvus)
chain: SADVVIRQHATELTSVLPSHLAEKGDGWLNAAVAAVRKDRNLWNAANSDPGAVMNALAEAARLGLQPGSKEYYLTVRGGKVLGIVGYQGEIELMYRAGAVSSVIVEPVFERDGFEYTPGVDDRPKHRIDWDADDRGPIRLAYAYAVMKDGAVSKVVVVNKTRIRRAKDASATAGKSHSPWTSDEVAMWMKTAAHDLAKWVPTSAEYIREQLRAVKEVEAEPARASDPRPEPVHIVEAQILDEDPFPNAPEDGAA
On to B9, for which, in experiment [1], the “Cas9 with SSAP activity” value is −0.640 and the “Cas9 with SSAP activity (normalized)” value is on record as −3.561. Also, in experiment [2], the “dCas9 with SSAP activity” value was −9.530 and the “dCas9 with SSAP activity (normalized)” value is on record as −2.720. For the same molecule, in experiment [3], the “Activity across all experiments” value was −5.085.

B10: SSAP_233: SEQ ID NO: 402; Actinoplanes italicus (protein, listed as Actinoplanes italicus)
chain: PETIANAVAQRDQSPTALVADYRNDFAAVLPSHLPPATFVRLAQGVLRRDQNLMRTAMNNPGSLMTAMLDCARLGHEPGTPAYYFVPIKGAIEGWEGYRGVIERIYRAGAVQSVRAEVVRENDFYEYEEGMPHPIHRYERFASPEQRGPLLGVWAYAVMLDGGMSRPVEMGREEVLAHRDMNPSNNRSDSPWKKWERSMWLKCAVHELEKWVPSSTEYRREIARMSAPQPAAAAAPVTYVPPQVGQRDAIEGEVAEDWPEPAEVPGGAQ
Regarding B10, in experiment [1], the “Cas9 with SSAP activity” value is −2.628 and the “Cas9 with SSAP activity (normalized)” value is listed as −0.424. Further, in experiment [2], the “dCas9 with SSAP activity” value is on record as −0.220 and the “dCas9 with SSAP activity (normalized)” value is reported as −0.063. Besides, the “Activity across all experiments” value in experiment [3] is on record as −1.424.

B11: SSAP_118: SEQ ID NO: 287; Kribbella albertanoniae (protein, listed as Kribbella albertanoniae)
chain: ATADSVREELARSKEVERTQPKASNADNVIGLINRSLPEIAKALPGHVKPERIARIATTAVRVTPKLADCTQASFLGALLTAAQLGLEPNTPTGEAYLLPFGRNVQLIIGYRGYIKLANQSGQVRNIMAMTVYENDHFDYKYGSNPFLEHTPTLGQDPGPVKCWYACATFTNGGTNFVVLDKFKVEGYRARARSKDDGPWVTDYDAMARKTCIRRLAPYLPMSVELAQAMQVDEEVTAFTPGVSDPEVLATLAGVDTGTGEVQQ
Take B11: the “Cas9 with SSAP activity” value in experiment [1] is −9.467. Moreover, the “dCas9 with SSAP activity” value in experiment [2] was −9.467. Besides, in experiment [3], the “Activity across all experiments” value was −9.467.

B12: SSAP_146: SEQ ID NO: 315; Mobilisporobacter senegalensis (protein, listed as Mobilisporobacter senegalensis)
chain: KDIKSALEKKVDKQDVKLTKSMSITDMIKALEPEIKKALPSVITPERFTRMALSAVNNTPKLAECSQMSFLAALMNAAQLGLEPNTSLGQAYLIPYQNKGKLECQFQLGFKGMIDLVYRNEKVQTIQAHCVYEEDYFEYELGLDSKLAHKPALANRGKMILVYAFFKLENGGFGFEVMSKEDIDIHALKYSKGYSSQYSPWKSNYEDMAKKTVIKKVLKYAPLKIDFQRAISVDETVKAEISIDMSEVQNEEIIDGQCTDVGEIEEK
On to B12, for which, in experiment [1], the “Cas9 with SSAP activity” value is −0.626 and the “Cas9 with SSAP activity (normalized)” value is −2.428. In addition, in experiment [2], the “dCas9 with SSAP activity” value is recorded as −9.454 and the “dCas9 with SSAP activity (normalized)” value is −1.210. The “Activity across all experiments” value in experiment [3] is −5.040.
